{
  "source": "patent US20160187342",
  "about": "“DNA Aptamer Specifically Binding to EN2 (Engrailed-2) and Use Thereof” (POSTECH ACADEMY-INDUSTRY FOUNDATION, published 2016)",
  "binders": {"B1": {"name": "dsDNA probe (dsDNA)", "DNA 1": "CGTGTAATTACCTC", "DNA 2": "GAGGTAATTACACG"}, "B2": {"name": "hpDNA2 (structured_DNA)", "DNA": "CGTGTAATTACCTCCAGGGAGAGGTAATTACACG"}, "B3": {"name": "hpDNA5 (structured_DNA)", "DNA": "CGTAATTACCCAGAAGGAGGTAATTACG"}, "B4": {"name": "hpDNA4 (structured_DNA)", "DNA": "CGTGTAATTACCTCCAGACCAGGAGAGGTAATTACACG"}, "B5": {"name": "hpDNA3 (structured_DNA)", "DNA": "CGTGTAATTACCTCCAGAAGGAGAGGTAATTACACG"}, "B6": {"name": "hpDNA1 (structured_DNA)", "DNA": "CGTGTAATTACCTCCAGAGAGGTAATTACACG"}, "B7": {"name": "hpDNA6 (structured_DNA)", "DNA": "CGCAGTGTAATTACCTCGACCAGAAGGAGTCGAGGTAATTACACTGCG"}},
  "key": {"EN2 (Engrailed-2) [1]": {"biological_target": "T1, EN2 (Engrailed-2) (UniProt P19622 P19622:1-333)", "T1 sequence": "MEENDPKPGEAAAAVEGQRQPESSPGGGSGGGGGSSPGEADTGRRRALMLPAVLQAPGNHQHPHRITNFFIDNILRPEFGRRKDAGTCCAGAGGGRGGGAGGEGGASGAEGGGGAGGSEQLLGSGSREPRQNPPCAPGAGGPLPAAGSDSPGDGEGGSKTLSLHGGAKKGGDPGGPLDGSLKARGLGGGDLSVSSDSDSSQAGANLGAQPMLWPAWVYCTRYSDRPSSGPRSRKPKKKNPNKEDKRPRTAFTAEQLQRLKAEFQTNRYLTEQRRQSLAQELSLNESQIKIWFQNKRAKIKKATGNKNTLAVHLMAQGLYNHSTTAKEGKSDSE", "assay": "FAM fluorescence; second strand printed 3'-5' in Table 1; EMSA, SPR and SYBR Green I displacement also showed binding of TAATTA dsDNA", "conditions": "tags: (His)6-tag, pET28a, E. coli BL21(DE3); label: FAM"}, "EN2 (Engrailed-2) [2]": {"biological_target": "T1, EN2 (Engrailed-2)", "assay": "FAM fluorescence of protein-bound aptamer", "conditions": "tags: (His)6-tag, pET28a, E. coli BL21(DE3), hairpin", "procedure": "(§1) Then, in order to compare binding strengths between the EN2 protein and each of the DNA aptamers, a dissociation constant (Kd) between the EN2 protein and each of the DNA aptamers was measured. In this case, fluorescein amidite (FAM) was attached to the DNA aptamer as a marker, and an amount of the DNA aptamer bound to the protein was measured according to a fluorescent signal of FAM."}, "EN2 (Engrailed-2) [3]": {"biological_target": "T1, EN2 (Engrailed-2)", "assay": "FAM fluorescence of protein-bound aptamer; printed as hDNA5", "conditions": "tags: (His)6-tag, pET28a, E. coli BL21(DE3); label: FAM; hairpin, loop 8 bases, stem 10 bp", "procedure": "as §1"}, "[4]": {"biological_target": "TATA box binding protein (TBP) (UniProt P20226 P20226:1-339)", "sequence (P20226 whole entry, one chain of several)": "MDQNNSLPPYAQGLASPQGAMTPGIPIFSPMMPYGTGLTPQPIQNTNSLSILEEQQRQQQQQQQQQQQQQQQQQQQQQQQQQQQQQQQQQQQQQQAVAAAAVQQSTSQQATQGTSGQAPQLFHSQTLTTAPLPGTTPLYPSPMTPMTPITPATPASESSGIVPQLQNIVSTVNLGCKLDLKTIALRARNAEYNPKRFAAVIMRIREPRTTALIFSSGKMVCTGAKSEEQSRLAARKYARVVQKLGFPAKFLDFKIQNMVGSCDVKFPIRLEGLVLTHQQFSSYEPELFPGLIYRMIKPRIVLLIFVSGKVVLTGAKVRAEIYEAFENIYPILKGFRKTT", "assay": "impedance biosensor on gold, 10 pM protein in artificial urine", "conditions": "label: FAM (Kd assay); poly A linker to gold surface (biosensor); hairpin, loop 8 bases, stem 14 bp", "procedure": "In order to identify selective binding of the DNA aptamer, a binding specificity with respect to several protein samples was identified. Each protein was mixed in an artificial urine medium to have a concentration of 10 pM, and then it was identified whether binding to the DNA aptamer was performed."}},
  "data": [
    {"binder": "B1", "values": [
      {"measurement": "Kd", "setting": "EN2 (Engrailed-2) [1]", "result": 95.2, "unit": "nM"}
    ]},
    {"binder": "B2", "values": [
      {"measurement": "Kd", "setting": "EN2 (Engrailed-2) [2]; label: FAM, loop 6 bases, stem 14 bp", "result": 98.8, "unit": "nM"}
    ]},
    {"binder": "B3", "values": [
      {"measurement": "Kd", "setting": "EN2 (Engrailed-2) [3]", "result": 68.8, "unit": "nM"}
    ]},
    {"binder": "B4", "values": [
      {"measurement": "Kd", "setting": "EN2 (Engrailed-2) [2]; label: FAM, loop 10 bases, stem 14 bp", "result": 88.8, "unit": "nM"}
    ]},
    {"binder": "B5", "values": [
      {"measurement": "Kd", "setting": "EN2 (Engrailed-2) [2]; label: FAM (Kd assay), poly A linker to gold surface (biosensor), loop 8 bases, stem 14 bp", "result": 66.3, "unit": "nM"},
      {"measurement": "binding result", "setting": "[4]", "result": "no binding"}
    ]},
    {"binder": "B6", "values": [
      {"measurement": "Kd", "setting": "EN2 (Engrailed-2) [2]; label: FAM, loop 4 bases, stem 14 bp", "result": 85.7, "unit": "nM"}
    ]},
    {"binder": "B7", "values": [
      {"measurement": "Kd", "setting": "EN2 (Engrailed-2) [2]; label: FAM, loop 8 bases, stem 20 bp", "result": 61, "unit": "nM"}
    ]}
  ]
}
